The values that follow come from publication PMC3900572 (The Journal of neuroscience : the official journal of the …, 2010).

The target in the experiment is RIBEYE(B)-MBP (rat, UniProt Q9EQH5-2 564-988). The experiment in a line: pull-down.

B1: GST-tagged full-length bovine GCAP2 (amino acids 1–204) (natural protein, UniProt P51177 1-204, looked up)
chain: MGQQFSWEEAEENGAVGAADAAQLQEWYKKFLEECPSGTLFMHEFKRFFKVPDNEEATQYVEAMFRAFDTNGDNTIDFLEYVAALNLVLRGTLEHKLKWTFKIYDKDRNGCIDRQELLDIVESIYKLKKACSVEVEAEQQGKLLTPEEVVDRIFLLVDENGDGQLSLNEFVEGARRDKWVMKMLQMDLNPSSWISQQRRKSAMF
Regarding B1, binding was put at a Kd of 2720 nM. In other words, the single-digit micromolar range.

As a reminder, the Kd is the constant that tells how readily two partners part at equilibrium.
